The results in this text go back to patent US20260234584A1, “R-LOOP SENSOR” (FUNDAÇÃO GIMM - GULBENKIAN INSTITUTE FOR MOLECULAR MEDICINE, priority 2023, published 2026).

Common to all, as to format: cell-based, human
For experiment [1], the system named is R-loops foci in U2OS cells. Briefly: Quantification of RHINO R-loops foci after transcription inhibition with triptolide. An excerpt: (A) Illustration of RHINO structure (left) and DNA:RNA hybrid labelling in an R-loop behind a transcribing RNA Pol II complex (right). The positions of the amino acids substituted in the RHINO mutants are indicated by red […]) and blue ([…]) asterisks. (B) Confocal microscopy images of RHINO expressed in U2OS cells together with mCherry-H2B to mark the cell nucleus and a corresponding max. intensity projection. RHINO spots throughout the nucleoplasm (highlighted in inset image) and intense labelled foci in the nucleoli are shown. (C) Comparison of RHINO and S9.6 antibody labelling of DNA:RNA hybrids. The nucleolar signals of S9.6 and RHINO are mutually exclusive (inset). (D) Expression of two RHINO mutant constructs and mCherry-histone-H2B. […] (E) Max. intensity projections of live U2OS cells expressing RHINO alone (left) or co-expressing mScarlet-i tagged human RNase H1 (right) and quantification of RHINO foci for each condition. (F) Quantification of RHINO foci upon use of a rapid inducible RNase H1. […] Quantification of RHINO foci before and 1 h after TA addition. (G) Max. intensity projections of random live U2OS cells expressing RHINO before and after 1 h incubation with Triptolide and quantification of RHINO foci number. (H) Max. intensity projections of the same live U2OS cells expressing RHINO before and after 1 h incubation with Triptolide and quantification of RHINO foci number. […]

The subject of experiment [2] is nucleolar R-loops in U2OS cells. The experiment in a line: FRAP on individual nucleolar RHINO foci. Particulars: in 200 seconds. An excerpt: (A) Labelling of nucleolar R-loops in live U2OS cells. Nucleoli are labelled by a red fluorescent nucleolar marker. Bright RHINO foci in several nucleoli are indicated with arrowheads. (B) Dissecting R-loop localization in nucleolar substructures. U2OS cells expressing RHINO were fixed and stained with an anti-UBF antibody marking the fibrillar centres/dense fibrillar component interface. Display of two super-resolution microscopy image sets acquired with structured illumination (top) and Airyscan 2 technology (bottom). (C) Measurements of nucleolar R-loops dynamics by FRAP on RHINO foci inside nucleoli. The fluorescence within the red circle was bleached (false colour images) and the recovery monitored over time. […] (D) Labelling of Tel-R-loops in live U2OS cells co-expressing RHINO and iRFP-TRF2. […]
Owing to the lack of robust tools to image and collect quantitative parameters of R-loops in live cells, a clear understanding of R-loops dynamics and of their specific kinetics at distinct genomic loci is scarce. […] To investigate the dynamics of nucleolar R-loops, fluorescence recovery was performed after photobleaching (FRAP) experiments in individual nucleolar RHINO foci (FIG. 2C). We observed a rapid turnover of fluorescent RHINO molecules, which restored 90% of the initial fluorescence intensity in 200 seconds (FIG. 2C).

In experiment [3] the test system is telomeric R-loops in U2OS cells. Briefly: FRAP at labelled telomeres. An excerpt:
(A) Labelling of nucleolar R-loops in live U2OS cells. Nucleoli are labelled by a red fluorescent nucleolar marker. Bright RHINO foci in several nucleoli are indicated with arrowheads. (B) Dissecting R-loop localization in nucleolar substructures. U2OS cells expressing RHINO were fixed and stained with an anti-UBF antibody marking the fibrillar centres/dense fibrillar component interface. Display of two super-resolution microscopy image sets acquired with structured illumination (top) and Airyscan 2 technology (bottom). (C) Measurements of nucleolar R-loops dynamics by FRAP on RHINO foci inside nucleoli. The fluorescence within the red circle was bleached (false colour images) and the recovery monitored over time. […] (D) Labelling of Tel-R-loops in live U2OS cells co-expressing RHINO and iRFP-TRF2. Several telomeres show directly adjacent or overlapping labelling of R-loops (magnified details 1-5). […] (E) Measurements of Tel-R-loops dynamics by FRAP of wild-type RHINO compared to both mutants and diffuse GFP at labelled telomeres. False colour images show the wild-type RHINO labelled cell with the bleach region (red circle). The curves display the mean intensity (+/−SD) of RHINO foci, RHINO mutants and diffuse GFP as control. […]

Take `CC(C)[C@]12O[C@H]1[C@@H]1O[C@]13[C@]1(O[C@H]1C[C@H]1C4=C(CC[C@@]13C)C(=O)OC4)[C@@H]2O` [triptolide]: in experiment [1] (one-hour treatment, bulk cell population of U2OS cells), the “number of R-loops foci detected by RHINO” value is recorded as “significantly decrease”. For the same molecule, the “reduction in the number of R-loops foci” value in experiment [1] (same RHINO-expressing cells imaged before and one hour after treatment) is reported as 46%.

B1: RHINO: genetically encoded RNA:DNA hybrid-binding sensor; fusion protein comprising 3 HBDs and a reporter domain (e.g., a fluorescent protein) (protein)
chain: MFYAVRRGRKTGVFLTWNECRAQVDRFPAARFKKFATEDEAWAFVRKSASVDGTAGPGSAVFYAVRRGRKTGVFLTWNECRAQVDRFPAARFKKFATEDEAWAFVRKSASVDGTAGPGSAVFYAVRRGRKTGVFLTWNECRAQVDRFPAARFKKFATEDEAWAFVRKSASVDGTAGPGSTGVTGKLDPPVATMVSKGEEDNMASLPATHELHIFGSINGVDFDMVGQGTGNPNDGYEELNLKSTKGDLQFSPWILVPHIGYGFHQYLPYPDGMSPFQAAMVDGSGYQVHRTMQFEDGASLTVNYRYTYEGSHIKGEAQVKGTGFPADGPVMTNSLTAADWCRSKKTYPNDKTIISTFKWSYTTGNGKRYRSTARTTYTFAKPMAANYLKNQPMYVFRKTELKHSKTELNFKEWQKAFTDVMGMDELYK
On to B1, for which the “restored initial fluorescence intensity after photobleaching” value in experiment [2] amounted to 90%. Besides, the “fluorescence recovery relative to initial intensity” value in experiment [3] (major fraction of telomeric R-loops, within 10-15 seconds after photobleaching) was 88%. Moreover, the “fluorescence recovery, second population of telomeric R-loops” value in experiment [3] (other (minor) population of telomeric R-loops) is recorded as “little to no recovery”.
